Consider 27 sequences from the supplement of paper PMC12764529.

± gives the half width of the 95% confidence interval.

A short description of data set [1]: folding stability dG unfold from chymotrypsin proteolysis; higher = more stable. Put shortly:
(§1)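 Digests were run with trypsin and chymotrypsin at 11 concentrations in threefold dilutions, plus a no-protease condition, on designed mini-proteins in a PA-tagged cDNA display construct. The mini-proteins were under 80 residues, had no cysteine, and were kept only when AlphaFold2 dimer inter-PAE was above 15. After sequencing, Bayesian fitting of the counts gave K50, from which unfolding free energy was derived against a sequence-predicted unfolded-state K50 and a shared folded-state K50, per protease or combined.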

Data set [2] is described as follows: folding stability dG unfold (combined trypsin and chymotrypsin); higher = more stable. Put shortly:
as §1

Data set [3] is described as follows: folding stability dG unfold from trypsin proteolysis; higher = more stable. An outline of the steps: as §1

“SASMGPEALVERIAEEIRKELGVDAGYKAPVEVRRPPDLVVVDAKLTVYKPDGNPLGEKTVRVVLPPLLSAG [r14_708_JUSTAS]”: the figures for the “folding stability dG unfold” value in data set [1], in data set [2] and in data set [3] were 0.0373 ± 0.22 kcal/mol, 0.129 ± 0.29 kcal/mol and -0.0399 ± 0.083 kcal/mol, respectively.
For “SASMIIDPVSSEEEIEKLVKEAIEAGIGGEGLIVLRSDGKVYRITIEPGTGKVKKEEVMSPEELAAKLGSAG [r14_913_JUSTAS]”, the “folding stability dG unfold” value was found to be 2.11 ± 0.051 kcal/mol in data set [1], 2.12 ± 0.16 kcal/mol in data set [2] and 1.75 ± 0.053 kcal/mol in data set [3].
Regarding “SASMIQKYFKSQGYKIEKIEEKTLPNGERVVSYKITSTVNVPPNEKGVSKPVKKTTELTLSTEEAIKLGSAG [r14_16_JUSTAS]”, the “folding stability dG unfold” value in data set [1] was determined as 1.32 ± 0.21 kcal/mol; in data set [2], 1.04 ± 0.15 kcal/mol; in data set [3], 0.304 ± 0.14 kcal/mol.
As to “SASMSPEELIEIEIELKRGNRNFTLKIKIPVGLSEEEIEEAIEKAKKELEEKVKKLEEEPPLNPENNLISAG [r14_70_JUSTAS]”, the “folding stability dG unfold” value amounted to 3.45 ± 0.06 kcal/mol in data set [1], 3.11 ± 0.12 kcal/mol in data set [2] and 2.33 ± 0.17 kcal/mol in data set [3].
For the sequence “SASSETFEIEVKVKLFFRDPEKGKLVEREFDAIVKVTVNPETGEVKVEVYFKPLGKPVTITLPPGASIESAG [r14_587_TrMRF]”, the “folding stability dG unfold” value amounted to 4.54 ± 0.16 kcal/mol in data set [1], 4.26 ± 0.21 kcal/mol in data set [2] and 3.13 ± 0.2 kcal/mol in data set [3].
Regarding “SASSITVSYDESTGVTTVTVDGGGFTFTVPNPEGKTLTVTVTQEALPDGTTRVTVTITFPDGSTTTVVVSAG [r14_675_JUSTAS]”, the “folding stability dG unfold” value came to 5 ± 0.18 kcal/mol in data set [1], 5.06 ± 0.17 kcal/mol in data set [2] and 4.17 ± 0.2 kcal/mol in data set [3].
Turning to “SASSSTTTSSGTLEEVLQQVEDYLKANPNTLVTIAPPDGTTTTVDLSYSPSIAVNGDPSGLTTVTITNSSAG [r14_807_JUSTAS]”, the “folding stability dG unfold” value in data set [1] was 0.932 ± 0.032 kcal/mol; in data set [2], 1.23 ± 0.09 kcal/mol; in data set [3], 1.57 ± 0.057 kcal/mol.
Turning to “SASTSSISTETESRKISSFTVGDKEYEIYENTTTTTLPDGSVVTTTTLSVKDPSSNVTKTLSSTTTFTPSAG [r14_195_JUSTAS]”, the “folding stability dG unfold” value was 2.49 ± 0.03 kcal/mol in data set [1], 2.32 ± 0.12 kcal/mol in data set [2] and 2.09 ± 0.044 kcal/mol in data set [3].
For “SATGAIVLEKPVEFNIPDKNGKPVFKSKVLIFVDPGKDKVYALIYDPKTGKKLIVEFNSPEEVKKFFESSAG [r14_508_TrMRF]”, the “folding stability dG unfold” value in data set [1] came to 1.54 ± 0.12 kcal/mol; in data set [2], 1.65 ± 0.077 kcal/mol; in data set [3], 1.65 ± 0.031 kcal/mol.
The matching figures for “SATITVHNPWNGQPIEIRIDPGMTPEEIKKKIEKVPGIPPGTRDAVEKAIEYFEAYRQNPEQRKKLKKESAG [r14_732_TrROS]”: 0.934 ± 0.096 kcal/mol, 0.675 ± 0.13 kcal/mol and 0.241 ± 0.093 kcal/mol.
The like results for “SATMLDYILDMAREQQEKNGKPVPITITIPVRRDPNGKFRMNEIHEELIKALKEAFPNVPIKIEMVPPPSAG [r14_636_TrROS]” were, in that order, 2.27 ± 0.036 kcal/mol, 2.28 ± 0.12 kcal/mol and 2.23 ± 0.076 kcal/mol.
“SATPTLTLEFEVEVEDPNAPGVPAPAKFTAEVAVTPPPVLYVGGEPWAGALLEQGLVTVGPDGLIAIPASAG [r14_582_TrMRF]”: the “folding stability dG unfold” value in data set [1] was found to be 1.11 ± 0.13 kcal/mol; in data set [2], 0.775 ± 0.13 kcal/mol; in data set [3], 0.442 ± 0.072 kcal/mol.
Turning to “SAVFIEVERDPGDGAYEVTIHYLIPLRPYKDPDGKQKPPVYFMIEITIRFSPNGQIRDLDIDIFPFDAPSAG [r14_246_TrROS]”, the results for the “folding stability dG unfold” value in data set [1], in data set [2] and in data set [3] were 4.41 ± 0.15 kcal/mol, 4.28 ± 0.37 kcal/mol and 3.53 ± 0.13 kcal/mol, respectively.
“SAVITLPDGTTVPSTVVEETETPDGVRITVRTERDGVLEIVDLYEPPGGEVTVLSTEVVPVPPGDPALESAG [r14_13_JUSTAS]”: the “folding stability dG unfold” value in data set [1] was -0.00381 ± 0.062 kcal/mol; in data set [2], 0.285 ± 0.091 kcal/mol; in data set [3] it was 0.518 ± 0.028 kcal/mol.
In the case of “SAVLRIPNPITGEVRTLTLPTEVPAVSPDGVTSFRSPENLAAAIRALPSDVKVLSVVEHPDGTVTIVVDPSA [r9_997_TrMRF]”, the “folding stability dG unfold” value is -0.414 ± 0.15 kcal/mol in data set [1], -0.0685 ± 0.064 kcal/mol in data set [2] and 0.102 ± 0.059 kcal/mol in data set [3].
In the case of “SAVPAEGMSPEEAAALAEEVREAFEAEVKAAGGPIPADTVVTVDYALEGSPVTITLTFTTPDSVSTTVASAG [r14_501_JUSTAS]”, the “folding stability dG unfold” value was found to be 0.57 ± 0.079 kcal/mol in data set [1], 0.906 ± 0.06 kcal/mol in data set [2] and 1.12 ± 0.045 kcal/mol in data set [3].
The like results for “SAVTPISLPSETGTLYRTDTDVILVVLKDPDPSVYRIITLKKKSADIKPLDENILGELSPEEANNPELLSAG [r14_384_JUSTAS]” were, in that order, 0.756 ± 0.11 kcal/mol, 0.742 ± 0.081 kcal/mol and 0.617 ± 0.055 kcal/mol.
As for “SAWIPIDSPEEAKDIAKEIADNYGLEDTKVEPMPDNYVVVKLEFEMPNENGQKRKRNITIYYDPDGKFWSAG [r14_420_TrROS]”, the “folding stability dG unfold” value amounted to 1.07 ± 0.083 kcal/mol in data set [1], 1.1 ± 0.099 kcal/mol in data set [2] and 0.973 ± 0.04 kcal/mol in data set [3].
Take “SDDKNMKPVKFKVEIEEERIEENGKKYIKIEVTWPGGNTVKIWFDPDKLIITFPVRSVEDVLEEVKDLIKSA [r9_662_TrROS]”: the “folding stability dG unfold” value was found to be 3.52 ± 0.039 kcal/mol in data set [1], 3.06 ± 0.085 kcal/mol in data set [2] and 2.19 ± 0.064 kcal/mol in data set [3].
As to “SDDPKDKKKPKPEITMVPIVFKIPPGDELKIEEDPNGMIEVRVPNGHWIRVWILVNPDGNILNVMIEPWPSA [r9_1195_TrROS]”, the figures for the “folding stability dG unfold” value in data set [1], in data set [2] and in data set [3] were 3.21 ± 0.066 kcal/mol, 2.82 ± 0.23 kcal/mol and 2.01 ± 0.15 kcal/mol, respectively.
As to “SDIENMPPEQFVHYIREALDEERENNPGEPVRIPIKDLGDKFPGFPPSMLKDMLGLTEDDLNNGPITIRPSA [r9_525_TrROS]”, the “folding stability dG unfold” value was -0.189 ± 0.28 kcal/mol in data set [1], -0.0917 ± 0.23 kcal/mol in data set [2] and -0.193 ± 0.079 kcal/mol in data set [3].
With “SDKIVKLIKKIMEEMGLPITKITDVEPGWIVIRMPNGWKIDIEIDPDDPDVIDIKWQPDPNGGMYMVIPVSA [r9_809_TrROS]”, the “folding stability dG unfold” value in data set [1] is 2.65 ± 0.069 kcal/mol; in data set [2], 2.6 ± 0.21 kcal/mol; in data set [3] it was 2.03 ± 0.078 kcal/mol.
As for “SDLEAVLAAIDAVPPGTVVRIRLTLPDGVPLEITFDAGKEEIKALLEELVKEHPDVPIGIEIEVFPPEELSA [r9_37_TrMRF]”, the “folding stability dG unfold” value in data set [1] amounted to 3.71 ± 0.093 kcal/mol; in data set [2], 3.61 ± 0.081 kcal/mol; in data set [3] it was 3.38 ± 0.1 kcal/mol.
The like results for “SDPNGKPKKRRFYVMITVPHKMKPERDPDGKMEMEHKMPTVMFPFPADDLDDLRDILEPFGISVSLMPLDSA [r9_1209_TrROS]” were, in that order, 2.14 ± 0.066 kcal/mol, 1.94 ± 0.093 kcal/mol and 1.6 ± 0.057 kcal/mol.
For the sequence “SDREFEAVFLVETPEEVEALARELALPGVEVEVHVLPAPYLDPETGEPRPFLLAVVRVRVPVPPPGPGALSA [r9_962_TrMRF]”, the “folding stability dG unfold” value was determined as 2.56 ± 0.055 kcal/mol in data set [1], 2.12 ± 0.088 kcal/mol in data set [2] and 0.969 ± 0.044 kcal/mol in data set [3].
Take “SDRFTATVEYPDTGKTETIELDPSHLSITVEFTGSATFRVTISYDVNGDTFTVEAEFTAPLAPVPPEAFLSA [r9_1067_TrMRF]”: the results for the “folding stability dG unfold” value in data set [1], in data set [2] and in data set [3] were 2.67 ± 0.028 kcal/mol, 2.51 ± 0.11 kcal/mol and 2.25 ± 0.15 kcal/mol, respectively.
On to “SDWKIVDIEREGNWYTITIQFKNPDGNPWMVTLYMPPNGPYRVEVYPPGDGKEREVRVPMDDIDEILDAISA [r9_91_TrROS]”, for which the “folding stability dG unfold” value in data set [1] is 2.96 ± 0.038 kcal/mol; in data set [2] it was 2.49 ± 0.11 kcal/mol; in data set [3], 1.33 ± 0.053 kcal/mol.
